Target: CD2 (human) (UniProt P06729)
Experiment: dTomato EVs from cells stably expressing the codon-optimized scFv on Jurkat T cells, flow cytometry

Chain of UniProt P06729 (P06729 25-351): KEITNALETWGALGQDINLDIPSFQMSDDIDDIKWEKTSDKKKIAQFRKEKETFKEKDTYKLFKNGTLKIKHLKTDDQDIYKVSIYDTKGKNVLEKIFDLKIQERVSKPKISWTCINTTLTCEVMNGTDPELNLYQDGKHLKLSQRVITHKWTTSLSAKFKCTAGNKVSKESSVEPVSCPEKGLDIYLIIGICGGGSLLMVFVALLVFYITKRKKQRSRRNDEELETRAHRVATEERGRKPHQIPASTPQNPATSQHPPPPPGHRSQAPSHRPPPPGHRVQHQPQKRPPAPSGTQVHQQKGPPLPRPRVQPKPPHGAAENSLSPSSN

- fold increase of EV binding over non-targeted EVs: > 100 fold
B1: anti-CD2 scFv displayed on EVs via the PDGFR transmembrane domain, helical (α-helix) linker (scFv)
scFv: DYKDHDGDYKDHDIDYKDDDDKNIMMTQSPSSLAVSAGEKVTMTCKSSQSVLYSSNQKNYLAWYQQKPGQSPKLLIYWASTRESGVPDRFTGSGSGTDFTLTISSVQPEDLAVYYCHQYLSSHTFGGGTKLEIKRGGGGSGGGGSGGGGSQLQQPGAELVRPGSSVKLSCKASGYTFTRYWIHWVKQRPIQGLEWIGNIDPSDSETHYNQKFKDKATLTVDKSSGTAYMQLSSLTSEDSAVYYCATEDLYYAMEYWGQGTSVTVSSDQSNSEEAKKEEAKKEEAKKSNSAVGQDTQEVIVVPHSLPFKVVVISAILALVVLTIISLIILIMLWQKKPR

Source: patent US20250312479A1
